Experiment [1] concerns the target T1, Interferon regulatory factor 3 (IRF3), as HAVI-Fluc-IRF3 and Rluc-IRF3-Flag, Q14653.
T1 chain: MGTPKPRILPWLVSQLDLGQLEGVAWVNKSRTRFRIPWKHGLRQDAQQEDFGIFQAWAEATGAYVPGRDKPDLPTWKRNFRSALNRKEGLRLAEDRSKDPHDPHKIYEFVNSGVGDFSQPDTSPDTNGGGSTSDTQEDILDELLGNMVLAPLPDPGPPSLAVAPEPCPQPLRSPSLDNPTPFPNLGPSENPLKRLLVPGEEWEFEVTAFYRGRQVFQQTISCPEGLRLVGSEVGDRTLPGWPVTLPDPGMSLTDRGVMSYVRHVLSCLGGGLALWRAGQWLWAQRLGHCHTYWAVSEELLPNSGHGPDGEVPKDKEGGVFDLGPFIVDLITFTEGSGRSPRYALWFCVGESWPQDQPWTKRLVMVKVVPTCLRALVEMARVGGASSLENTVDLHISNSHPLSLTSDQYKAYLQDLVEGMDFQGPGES
Briefly: pull-down; DLR-PD (dual luciferase reporter pull-down): both proteins co-expressed in HEK293; lysate in passive lysis buffer on Streptavidin MagneSphere Paramagnetic Particles in PBS, 30 m to 1 h, room temperature; two washes PBS with 1% Nonidet P 40, one with PBS; the biotinylated HAVI-tagged protein is held, Fluc and Rluc activity read on the beads; in some samples eYFP-MAVS or other activators (IRF3) or HCV …. Conditions: remark: other sources report otherwise. On the technique in general: Reporter assays use an easily measured gene product as a stand-in for the process of interest.

In experiment [2] the target is Mitochondrial antiviral signaling protein (MAVS), as HAVI-Fluc-MAVS and Rluc-MAVS-Flag, Q7Z434. Described as above. Conditions: remark: other sources report otherwise.
Experiment [3] has as its target MAVS cleaved by HCV NS3/4A (HAVI-Fluc-MAVS and Rluc-MAVS co-expressed with NS3/4A). The experiment can be described thus: pull-down; DLR-PD (dual luciferase reporter pull-down): both proteins co-expressed in HEK293; lysate in passive lysis buffer on Streptavidin MagneSphere Paramagnetic Particles in PBS, 30 m to 1 h, room temperature; two washes PBS with 1% Nonidet P 40, one with PBS; the biotinylated HAVI-tagged protein is held, Fluc and Rluc activity read on the beads; in some samples eYFP-MAVS or other activators (IRF3) or HCV NS3/4A (MAVS) co-expressed.

Consider four molecules from article PMC3198426.

B1: Interferon regulatory factor 3 (IRF3), as HAVI-Fluc-IRF3 and Rluc-IRF3-Flag, Q14653 1-427 (natural protein)
chain: MGTPKPRILPWLVSQLDLGQLEGVAWVNKSRTRFRIPWKHGLRQDAQQEDFGIFQAWAEATGAYVPGRDKPDLPTWKRNFRSALNRKEGLRLAEDRSKDPHDPHKIYEFVNSGVGDFSQPDTSPDTNGGGSTSDTQEDILDELLGNMVLAPLPDPGPPSLAVAPEPCPQPLRSPSLDNPTPFPNLGPSENPLKRLLVPGEEWEFEVTAFYRGRQVFQQTISCPEGLRLVGSEVGDRTLPGWPVTLPDPGMSLTDRGVMSYVRHVLSCLGGGLALWRAGQWLWAQRLGHCHTYWAVSEELLPNSGHGPDGEVPKDKEGGVFDLGPFIVDLITFTEGSGRSPRYALWFCVGESWPQDQPWTKRLVMVKVVPTCLRALVEMARVGGASSLENTVDLHISNSHPLSLTSDQYKAYLQDLVEGMDFQGPGES
modifications: here or on the partner: biotin on a specific lysine residue of the Avi tag (by co-expressed BirA), on the HAVI-Fluc copy; biotin on a specific lysine residue of the Avi tag (by co-expressed BirA), on the HAVI-Fluc copy
On to B1, for which, in experiment [1], the activity ratio of Rluc/Fluc on the beads (10 ng MAVS vector, as the sentence says) (Rluc/Fluc activity ratio) came out at 0.01; the activity ratio of Rluc/Fluc on the beads (100 ng MAVS vector) (Rluc/Fluc activity ratio) was 0.75; the fold increase of the IRF3 dimerization ratio (overexpressed IKKε) is < 1000 fold; the fold of the percentage of Rluc on the beads over the negative control (10 ng of the MAVS vector) came to 27 fold.

B2: Rluc-TRAF3-Flag, Q13114 1-568 (natural protein)
chain: MESSKKMDSPGALQTNPPLKLHTDRSAGTPVFVPEQGGYKEKFVKTVEDKYKCEKCHLVLCSPKQTECGHRFCESCMAALLSSSSPKCTACQESIVKDKVFKDNCCKREILALQIYCRNESRGCAEQLMLGHLLVHLKNDCHFEELPCVRPDCKEKVLRKDLRDHVEKACKYREATCSHCKSQVPMIALQKHEDTDCPCVVVSCPHKCSVQTLLRSELSAHLSECVNAPSTCSFKRYGCVFQGTNQQIKAHEASSAVQHVNLLKEWSNSLEKKVSLLQNESVEKNKSIQSLHNQICSFEIEIERQKEMLRNNESKILHLQRVIDSQAEKLKELDKEIRPFRQNWEEADSMKSSVESLQNRVTELESVDKSAGQVARNTGLLESQLSRHDQMLSVHDIRLADMDLRFQVLETASYNGVLIWKIRDYKRRKQEAVMGKTLSLYSQPFYTGYFGYKMCARVYLNGDGMGKGTHLSLFFVIMRGEYDALLPWPFKQKVTLMLMDQGSSRRHLGDAFKPDPNSSSFKKPTGEMNIASGCPVFVAQTVLENGTYIKDDTIFIKVIVDTSDLPDP
modifications: here or on the partner: biotin on a specific lysine residue of the Avi tag (by co-expressed BirA), on the HAVI-Fluc copy
For the molecule B2, in experiment [2], the activity ratio of Rluc/Fluc on the beads (Rluc/Fluc activity ratio) was determined as 2.29, the fold of the percentage of Rluc on the beads over the three negative controls was > 26 fold and the percentage of Rluc on the beads compared with the cell lysate is 1.85%.

B3: Rluc-TRAF3-Flag (natural protein)
chain: MESSKKMDSPGALQTNPPLKLHTDRSAGTPVFVPEQGGYKEKFVKTVEDKYKCEKCHLVLCSPKQTECGHRFCESCMAALLSSSSPKCTACQESIVKDKVFKDNCCKREILALQIYCRNESRGCAEQLMLGHLLVHLKNDCHFEELPCVRPDCKEKVLRKDLRDHVEKACKYREATCSHCKSQVPMIALQKHEDTDCPCVVVSCPHKCSVQTLLRSELSAHLSECVNAPSTCSFKRYGCVFQGTNQQIKAHEASSAVQHVNLLKEWSNSLEKKVSLLQNESVEKNKSIQSLHNQICSFEIEIERQKEMLRNNESKILHLQRVIDSQAEKLKELDKEIRPFRQNWEEADSMKSSVESLQNRVTELESVDKSAGQVARNTGLLESQLSRHDQMLSVHDIRLADMDLRFQVLETASYNGVLIWKIRDYKRRKQEAVMGKTLSLYSQPFYTGYFGYKMCARVYLNGDGMGKGTHLSLFFVIMRGEYDALLPWPFKQKVTLMLMDQGSSRRHLGDAFKPDPNSSSFKKPTGEMNIASGCPVFVAQTVLENGTYIKDDTIFIKVIVDTSDLPDP
For the molecule B3, the activity ratio of Rluc/Fluc on the beads (100 ng NS3/4A vector) (Rluc/Fluc activity ratio) in experiment [3] came to 0.956.

B4: Mitochondrial antiviral signaling protein (MAVS), as HAVI-Fluc-MAVS and Rluc-MAVS-Flag, Q7Z434 1-540 (natural protein)
chain: MPFAEDKTYKYICRNFSNFCNVDVVEILPYLPCLTARDQDRLRATCTLSGNRDTLWHLFNTLQRRPGWVEYFIAALRGCELVDLADEVASVYQSYQPRTSDRPPDPLEPPSLPAERPGPPTPAAAHSIPYNSCREKEPSYPMPVQETQAPESPGENSEQALQTLSPRAIPRNPDGGPLESSSDLAALSPLTSSGHQEQDTELGSTHTAGATSSLTPSRGPVSPSVSFQPLARSTPRASRLPGPTGSVVSTGTSFSSSSPGLASAGAAEGKQGAESDQAEPIICSSGAEAPANSLPSKVPTTLMPVNTVALKVPANPASVSTVPSKLPTSSKPPGAVPSNALTNPAPSKLPINSTRAGMVPSKVPTSMVLTKVSASTVPTDGSSRNEETPAAPTPAGATGGSSAWLDSSSENRGLGSELSKPGVLASQVDSPFSGCFEDLAISASTSLGMGPCHGPEENEYKSEGTFGIHVAENPSIQLLEGNPGPPADPDGGPRPQADRKFQEREVPCHRPSPGALWLQVAVTGVLVVTLLVVLYRRRLH
modifications: here or on the partner: biotin on a specific lysine residue of the Avi tag (by co-expressed BirA), on the HAVI-Fluc copy; biotin on a specific lysine residue of the Avi tag (by co-expressed BirA), on the HAVI-Fluc copy
On to B4, for which, in experiment [2], the activity ratio of Rluc/Fluc on the beads (Rluc/Fluc activity ratio) came out at 0.28, the fold of the percentage of Rluc on the beads over the three negative controls is > 6 fold and the percentage of Rluc on the beads compared with the cell lysate is 0.13%.
